In assay [1] the target is T1, recombinant biotinylated monomeric Fc fusion of murine Folate Receptor 1 (mu FolR1 ECD-AcTev-Fcknob-Avitag … (murine, UniProt P0DOX5 223-449 = IgG part, biotin on the C-terminal Avi tag)).
T1 construct: also called muFolR1-Fc; murine FolR1
Briefly: SPR Biacore, avidity set-up, antigen-Fc on SA chip. The procedure: (§1) The avidity of the interaction between the anti-FolR1 IgGs or T cell bispecifics and the recombinant folate receptors was determined as described below (Table 38).
(§2) Recombinant biotinylated monomeric Fc fusions of human, cynomolgus and murine Folate Receptor 1 (FolR1-Fc) were directly coupled on a SA chip using the standard coupling instruction (Biacore, Freiburg/Germany). The immobilization level was about 160. The anti-FolR1 IgGs or T cell bispecifics were passed at a concentration range from 3.7 to 900 nM with a flow of 30 μL/minutes through the flow cells over 180 seconds. The dissociation was monitored for 600 seconds. Bulk refractive index differences were corrected for by subtracting the response obtained on reference flow cell immobilized with recombinant biotinylated murine IL2 receptor Fc fusion. The binding curves resulting from the bivalent binding of the IgG or T cell bispecifics were approximated to a 1:1 Langmuir binding (even though it is a 1:2 binding) and fitted with that model to get an apparent KD representing the avidity of the bivalent binding. The apparent avidity constants for the interactions were derived from the rate constants of the fitting using the Bia Evaluation software (GE Healthcare).

Assay [2] deals with T2, recombinant biotinylated monomeric Fc fusion of human Folate Receptor 1 (huFolR1 ECD-AcTev-Fcknob-Avi tag … (human, UniProt P0DOX5 223-449 = IgG part, biotin on the C-terminal Avi tag)).
T2 construct: also called huFolR1-Fc; human FolR1-Fc
Briefly: SPR Biacore, affinity (monovalent), antibody captured via anti-Fab. The procedure:
(§3) The affinity of the interaction between the anti-FolR1 IgGs or the T cell bispecifics and the recombinant folate receptors was determined as described below (Table 39).
(§4) For affinity measurement, direct coupling of around 10000 resonance units (RU) of the anti-human Fab specific antibody (Fab capture kit, GE Healthcare) was performed on a CM5 chip at pH 5.0 using the standard amine coupling kit (GE Healthcare). Anti-FolR1 IgGs or T cell bispecifics were captured at 20 nM with a flow rate of 10 μl/min for 40 sec, the reference flow cell was left without capture. Dilution series (12.35 to 3000 nM) of human and cyno Folate Receptor 1 Fc fusion were passed on all flow cells at 30 μl/min for 240 sec to record the association phase. The dissociation phase was monitored for 300 s and triggered by switching from the sample solution to HBS-EP. The chip surface was regenerated after every cycle using a double injection of 60 sec 10 mM Glycine-HCl pH 1.5. Bulk refractive index differences were corrected for by subtracting the response obtained on the reference flow cell 1. The affinity constants for the interactions were derived from the rate constants by fitting to a 1:1 Langmuir binding using the Bia Evaluation software (GE Healthcare).
(In general: SPR reads the build-up and loss of mass on a sensor chip optically.)

Assay [3] concerns the target T3, recombinant biotinylated monomeric Fc fusion of cynomolgus Folate Receptor 1 (cy FolR1 ECD-AcTev-Fcknob-Avi … (cynomolgus, UniProt P0DOX5 223-449 = IgG part, biotin on the C-terminal Avi tag)).
T3 construct: also called cyFolR1-Fc; cyno FolR1
Described as above. The procedure:
as §3, §4

In assay [4] the target is T2, recombinant biotinylated monomeric Fc …. The assay is described as follows: SPR Biacore, avidity (bivalent, apparent KD), antigen-Fc on SA chip. The procedure:
as §1, §2

The target of assay [5] is T3, recombinant biotinylated monomeric Fc …. The description is as above. The procedure:
as §1, §2

For assay [6], the target named is T4, human FolR1 expressed on cells (HeLa, SKOV3, HT-29, transfected HEK cells) (human, UniProt P15328 25-234).
T4 construct: whole, on cells; also called FolR1 on HeLa cells; human FolR1 on cells
Briefly: flow cytometry on HeLa cells.

The target of assay [7] is T2, recombinant biotinylated monomeric Fc …. Briefly: SPR Biacore, single injection on immobilized antigen-Fc. A digest of the protocol: (§5)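 Biacore T200 at 25 °C in HBS-EP (HEPES pH 7.4). Biotinylated FolR-Fc fusions captured on SA chip at about 300-400 RU. IgGs injected once at 500 nM for 60 s to assess cross-reactivity and specificity.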
In assay [8] the target is T3, recombinant biotinylated monomeric Fc …. Described as above. A digest of the protocol: as §5
Assay [9] has as its target T5, recombinant biotinylated monomeric Fc fusion of human Folate Receptor 2 (hu FolR2 ECD-AcTev-Fcknob-Avi tag … (human, UniProt P0DOX5 223-449 = IgG part, biotin on the C-terminal Avi tag)).
T5 construct: also called FolR2-Fc
The description is as above. A digest of the protocol: as §5

For assay [10], the target named is T6, recombinant biotinylated monomeric Fc fusion of human Folate Receptor 3 (hu FolR3 ECD-AcTev-Fcknob-Avi tag … (human, UniProt P0DOX5 223-449 = IgG part, biotin on the C-terminal Avi tag)).
T6 construct: also called FolR3-Fc
Described as above. A digest of the protocol:
as §5

The target of assay [11] is T4, human FolR1 expressed on cells (HeLa, …). The assay is described as follows: flow cytometry on transfected HEK cells. (In general: In flow cytometry, cells or beads pass a laser one at a time.)
Assay [12] has as its target T7, human FolR2 on transfected HEK cells (human, UniProt P14207 17-230).
T7 construct: whole, on cells
Briefly: flow cytometry on transfected HEK cells.

The target in assay [13] is T1, recombinant biotinylated monomeric Fc …. The assay is described as follows: SPR Biacore, single injection on immobilized antigen-Fc. The gist of the method:
as §5

T4 sequence (P15328 25-234): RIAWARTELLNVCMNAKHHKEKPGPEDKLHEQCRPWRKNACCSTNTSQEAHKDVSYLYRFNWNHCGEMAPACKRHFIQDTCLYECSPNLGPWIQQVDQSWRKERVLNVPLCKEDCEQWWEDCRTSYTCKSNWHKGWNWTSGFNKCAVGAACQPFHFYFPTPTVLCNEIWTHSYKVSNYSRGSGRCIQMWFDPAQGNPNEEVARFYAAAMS
T7 sequence (P14207 17-230): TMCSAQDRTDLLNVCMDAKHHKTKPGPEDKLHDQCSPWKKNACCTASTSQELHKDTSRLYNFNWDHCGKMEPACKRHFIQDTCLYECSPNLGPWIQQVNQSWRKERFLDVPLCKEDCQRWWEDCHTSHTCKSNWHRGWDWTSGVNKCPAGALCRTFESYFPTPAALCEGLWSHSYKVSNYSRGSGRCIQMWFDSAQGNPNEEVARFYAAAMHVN

B1: 16D5 D52dE IgG (antibody, V domains shown)
VH: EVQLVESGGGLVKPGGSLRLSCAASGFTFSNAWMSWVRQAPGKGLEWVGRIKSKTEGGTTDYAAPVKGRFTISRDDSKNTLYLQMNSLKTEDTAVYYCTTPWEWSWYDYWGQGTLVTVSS
VL: QAVVTQEPSLTVSPGGTVTLTCGSSTGAVTTSNYANWVQEKPGQAFRGLIGGTNKRAPGTPARFSGSLLGGKAALTLSGAQPEDEAEYYCALWYSNLWVFGGGTKLTVL
notes: IgG
For orientation: koff means the rate constant with which the complex falls apart. In general, kon refers to the second-order rate constant of association. As to B1, the binding result in assay [1] is given as “no binding”. The Kd was 95 nM in [2], 530 nM in assay [3], 3.4 nM in [4] and 2.5 nM in assay [5]. In addition, the koff in [2] was 0.00227 s⁻¹; in assay [3] it was 0.012 s⁻¹; in assay [4], 0.000545 s⁻¹; in assay [5], 0.00747 s⁻¹. The kon is 24000 M⁻¹ s⁻¹ in [2], 22500 M⁻¹ s⁻¹ in assay [3], 162000 M⁻¹ s⁻¹ in [4] and 2.98e+06 M⁻¹ s⁻¹ in assay [5].

B2: 16D5 D52dQ IgG (antibody, V domains shown)
VH: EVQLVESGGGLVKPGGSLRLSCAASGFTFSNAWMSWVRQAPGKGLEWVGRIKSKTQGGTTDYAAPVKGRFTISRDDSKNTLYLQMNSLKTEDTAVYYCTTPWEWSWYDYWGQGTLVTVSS
VL: B1 VL
notes: IgG
In the case of B2, the binding result in assay [1] is on record as “no binding”. The Kd in [2] came to 230 nM; in assay [3], 410 nM; in [4] it was 9.2 nM; in assay [5] it was 5 nM. The koff worked out at 0.00162 s⁻¹ in [2], 0.00332 s⁻¹ in assay [3], 0.000775 s⁻¹ in [4] and 0.00204 s⁻¹ in assay [5]. Also, the kon in [2] was found to be 6970 M⁻¹ s⁻¹; in assay [3], 8200 M⁻¹ s⁻¹; in [4] it was 84000 M⁻¹ s⁻¹; in assay [5], 412000 M⁻¹ s⁻¹.

B3: 14E4 IgG (antibody, V domains shown)
VH: not shown
VL: EIVLTQSPGTLSLSPGERATLSCRASQSVSSSYLAWYQQKPGQAPRLLIYGASSRATGIPDRFSGSGSGTDSTLTISRLEPEDFAVYYCQQPTSSPITFGQGTKVEIK
notes: human IgG1
B3: the binding result in assay [6] is “no binding”; in [7], “no binding (tested: 500 nM)”; in assay [8], “no binding (tested: 500 nM)”; in assay [9], “no binding (tested: 500 nM)”; in assay [10] it was “no binding (tested: 500 nM)”.

B4: 9D11 IgG (antibody, V domains shown)
VH: QVQLVQSGAEVKKPGASVKVSCKASGYTFTSYYMHWVRQAPGQGLEWMGIINPSGGPTSYAQKFQGRVTMTRDTSTSTVYMELSSLRSEDTAVYYCARGDFAWLDYWGQGTLVTVSS
VL: not shown
notes: human IgG1
Turning to B4, the binding result in assay [11] is given as “binds”; in assay [12], “no binding”; in assay [13], “no binding (tested: 500 nM)”; in assay [9], “no binding (tested: 500 nM)”; in assay [10] it was “no binding (tested: 500 nM)”.

(Values after patent US20220220224A1 (Hoffmann-La Roche, published 2022).)
